We go through 1 molecule from patent CN114349861A (HUAOTSU BALL; JIANGSU INST OF TARGET BIOMEDICINE CO LTD, dated 2022).

The experiment has as its target T1, 人PD1蛋白 (human, UniProt Q15116 25-170).
T1 construct: extracellular domain; also called PD1(人); PD1(胞外段)蛋白
Kind of experiment: non-competitive ELISA at three PD1 coating concentrations; Beatty formula, mean of three K values. For orientation: ELISA stands for enzyme-linked immunosorbent assay.

T1 sequence (Q15116 25-170): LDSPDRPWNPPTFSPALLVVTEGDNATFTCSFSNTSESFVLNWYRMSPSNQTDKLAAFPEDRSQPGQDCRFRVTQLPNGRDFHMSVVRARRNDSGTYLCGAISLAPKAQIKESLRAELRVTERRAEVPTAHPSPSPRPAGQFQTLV

B1: 抗PD1-VHH1 (VHH)
VHH: QVQLVESGGGSVQAGGSLRLSCAASGYASSSYSMGWFRQAPGKEREAVAGVNRDGSTRYADSVKGRFTISKDNAKNTLYLQMNSLKPEDTAMYYCAADRGWLPRRPDYWGQGTQVTVSS
notes: Camel (dromedary) VHH selected from a T7 phage library; The soluble protein was expressed from pET32a in E. coli BL21(DE3) and purified on Ni-IDA; The specificity ELISA detected it with an anti-HA antibody; also called 抗PD1Nb1; antiPD1Nb
As for B1, the Ka turned out to be 8.2e+06 M⁻¹.
